Laboratory results: IntAct's records for PubMed 17525332

B1: Zinc finger CCHC domain-containing protein 8 (Homo sapiens), Q6NZY4 (parent)
chain: MAAEVYFGDLELFEPFDHPEESIPKPVHTRFKDDDGDEEDENGVGDAELRERLRQCEETIEQLRAENQELKRKLNILTRPSGILVNDTKLDGPILQILFMNNAISKQYHQEIEEFVSNLVKRFEEQQKNDVEKTSFNLLPQPSSIVLEEDHKVEESCAIKNNKEAFSVVGSVLYFTNFCLDKLGQPLLNENPQLSEGWEIPKYHQVFSHIVSLEGQEIQVKAKRPKPHCFNCGSEEHQMKDCPMPRNAARISEKRKEYMDACGEANNQNFQQRYHAEEVEERFGRFKPGVISEELQDALGVTDKSLPPFIYRMRQLGYPPGWLKEAELENSGLALYDGKDGTDGETEVGEIQQNKSVTYDLSKLVNYPGFNISTPRGIPDEWRIFGSIPMQACQQKDVFANYLTSNFQAPGVKSGNKRSSSHSSPGSPKKQKNESNSAGSPADMELDSDMEVPHGSQSSESFQFQPPLPPDTPPLPRGTPPPVFTPPLPKGTPPLTPSDSPQTRTASGAVDEDALTLEELEEQQRRIWAALEQAESVNSDSDVPVDTPLTGNSVASSPCPNELDLPVPEGKTSEKQTLDEPEVPEIFTKKSEAGHASSPDSEVTSLCQKEKAELAPVNTEGALLDNGSVVPNCDISNGGSQKLFPADTSPSTATKIHSPIPDMSKFATGITPFEFENMAESTGMYLRIRSLLKNSPRNQQKNKKASE
B2: Origin recognition complex subunit 3 (Homo sapiens), Q9UBD5 (parent)
chain: MATSSMSKGCFVFKPNSKKRKISLPIEDYFNKGKNEPEDSKLRFETYQLIWQQMKSENERLQEELNKNLFDNLIEFLQKSHSGFQKNSRDLGGQIKLREIPTAALVLGVNVTDHDLTFGSLTEALQNNVTPYVVSLQAKDCPDMKHFLQKLISQLMDCCVDIKSKEEESVHVTQRKTHYSMDSLSSWYMTVTQKTDPKMLSKKRTTSSQWQSPPVVVILKDMESFATKVLQDFIIISSQHLHEFPLILIFGIATSPIIIHRLLPHAVSSLLCIELFQSLSCKEHLTTVLDKLLLTTQFPFKINEKVLQVLTNIFLYHDFSVQNFIKGLQLSLLEHFYSQPLSVLCCNLPEAKRRINFLSNNQCENIRRLPSFRRYVEKQASEKQVALLTNERYLKEETQLLLENLHVYHMNYFLVLRCLHKFTSSLPKYPLGRQIRELYCTCLEKNIWDSEEYASVLQLLRMLAKDELMTILEKCFKVFKSYCENHLGSTAKRIEEFLAQFQSLDETKEEEDASGSQPKGLQKTDLYHLQKSLLEMKELRRSKKQTKFEVLRENVVNFIDCLVREYLLPPETQPLHEVVYFSAAHALREHLNAAPRIALHTALNNPYYYLKNEALKSEEGCIPNIAPDICIAYKLHLECSRLINLVDWSEAFATVVTAAEKMDANSATSEEMNEIIHARFIRAVSELELLGFIKPTKQKTDHVARLTWGGC
B3: DNA replication complex GINS protein PSF2 (Homo sapiens), Q9Y248 (parent)
chain: MDAAEVEFLAEKELVTIIPNFSLDKIYLIGGDLGPFNPGLPVEVPLWLAINLKQRQKCRLLPPEWMDVEKLEKMRDHERKEETFTPMPSPYYMELTKLLLNHASDNIPKADEIRTLVKDMWDTRIAKLRVSADSFVRQQEAHAKLDNLTLMEINTSGTFLTQALNHMYKLRTNLQPLESTQSQDF

Variants of: B1
Details: with brca1_human BRCA1, P38398
Target sequence in this assay (P38398 whole entry, looked up): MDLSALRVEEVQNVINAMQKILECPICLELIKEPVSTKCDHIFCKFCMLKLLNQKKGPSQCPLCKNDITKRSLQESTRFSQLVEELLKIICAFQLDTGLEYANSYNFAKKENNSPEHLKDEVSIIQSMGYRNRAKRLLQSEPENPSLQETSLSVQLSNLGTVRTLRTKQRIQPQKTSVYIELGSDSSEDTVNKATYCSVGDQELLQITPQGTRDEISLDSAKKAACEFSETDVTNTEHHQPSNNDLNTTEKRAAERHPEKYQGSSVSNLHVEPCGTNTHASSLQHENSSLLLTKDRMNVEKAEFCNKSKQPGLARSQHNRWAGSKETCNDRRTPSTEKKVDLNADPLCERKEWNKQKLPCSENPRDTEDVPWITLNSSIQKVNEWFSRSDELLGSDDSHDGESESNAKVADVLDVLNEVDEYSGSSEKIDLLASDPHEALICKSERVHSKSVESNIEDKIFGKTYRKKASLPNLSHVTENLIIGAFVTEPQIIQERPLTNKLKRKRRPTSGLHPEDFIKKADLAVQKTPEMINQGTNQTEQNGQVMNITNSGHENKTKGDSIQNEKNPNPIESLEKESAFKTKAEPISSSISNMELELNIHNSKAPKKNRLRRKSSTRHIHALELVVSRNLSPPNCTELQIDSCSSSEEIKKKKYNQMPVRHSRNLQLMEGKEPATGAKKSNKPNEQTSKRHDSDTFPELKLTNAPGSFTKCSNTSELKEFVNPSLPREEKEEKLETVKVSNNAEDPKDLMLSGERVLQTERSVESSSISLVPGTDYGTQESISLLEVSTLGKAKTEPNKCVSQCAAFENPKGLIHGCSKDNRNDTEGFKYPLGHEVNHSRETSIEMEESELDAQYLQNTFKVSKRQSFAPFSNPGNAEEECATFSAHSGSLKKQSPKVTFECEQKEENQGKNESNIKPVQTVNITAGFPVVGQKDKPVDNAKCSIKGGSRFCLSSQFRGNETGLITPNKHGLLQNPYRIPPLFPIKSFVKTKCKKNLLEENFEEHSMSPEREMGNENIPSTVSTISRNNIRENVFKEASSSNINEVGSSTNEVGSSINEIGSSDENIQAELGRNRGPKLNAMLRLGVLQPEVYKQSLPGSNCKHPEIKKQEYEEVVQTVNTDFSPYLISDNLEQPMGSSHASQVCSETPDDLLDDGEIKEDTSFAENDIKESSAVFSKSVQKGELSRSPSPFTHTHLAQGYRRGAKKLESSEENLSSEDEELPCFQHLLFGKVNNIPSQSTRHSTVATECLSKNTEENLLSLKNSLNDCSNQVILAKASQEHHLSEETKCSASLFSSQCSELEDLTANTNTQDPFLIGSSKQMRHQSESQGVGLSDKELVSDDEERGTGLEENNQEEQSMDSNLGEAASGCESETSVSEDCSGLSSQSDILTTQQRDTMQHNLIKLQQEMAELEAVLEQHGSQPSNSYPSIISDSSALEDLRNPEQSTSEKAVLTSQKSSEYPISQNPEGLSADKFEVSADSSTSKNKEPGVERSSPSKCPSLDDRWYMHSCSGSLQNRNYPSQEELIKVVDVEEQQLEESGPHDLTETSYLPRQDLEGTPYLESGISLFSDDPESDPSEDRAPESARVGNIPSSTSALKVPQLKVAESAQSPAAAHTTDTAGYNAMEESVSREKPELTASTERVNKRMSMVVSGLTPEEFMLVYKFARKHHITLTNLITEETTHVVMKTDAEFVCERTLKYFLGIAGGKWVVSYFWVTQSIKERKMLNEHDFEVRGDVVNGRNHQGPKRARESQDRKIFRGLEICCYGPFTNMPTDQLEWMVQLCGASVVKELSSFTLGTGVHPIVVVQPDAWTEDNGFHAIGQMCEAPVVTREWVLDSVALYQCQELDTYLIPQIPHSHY

effect of a mutation on the interaction | Variant
disrupting interaction | S456A

Variants of: B2
Details: with brca1_human BRCA1, P38398
Target sequence in this assay (P38398 whole entry, looked up): as above

effect of a mutation on the interaction | Variant
disrupting interaction | S516A

Variants of: B3
Details: with chk2_human CHEK2, O96017
Chain of chk2_human CHEK2, O96017 (O96017 whole entry): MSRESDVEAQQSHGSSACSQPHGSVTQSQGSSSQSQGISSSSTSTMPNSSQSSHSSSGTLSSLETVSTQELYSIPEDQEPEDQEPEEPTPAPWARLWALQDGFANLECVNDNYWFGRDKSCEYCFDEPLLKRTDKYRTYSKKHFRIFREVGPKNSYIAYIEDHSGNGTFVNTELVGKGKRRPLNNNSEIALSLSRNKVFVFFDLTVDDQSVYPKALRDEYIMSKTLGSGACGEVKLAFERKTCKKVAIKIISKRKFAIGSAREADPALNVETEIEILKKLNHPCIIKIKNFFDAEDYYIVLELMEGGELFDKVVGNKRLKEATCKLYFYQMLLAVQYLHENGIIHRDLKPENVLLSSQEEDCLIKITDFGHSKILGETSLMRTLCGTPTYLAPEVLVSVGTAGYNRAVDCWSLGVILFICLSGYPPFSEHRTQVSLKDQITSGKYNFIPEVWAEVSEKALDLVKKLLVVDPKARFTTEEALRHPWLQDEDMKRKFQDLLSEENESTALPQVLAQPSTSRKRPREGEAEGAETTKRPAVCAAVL

effect of a mutation on the interaction | Variant
disrupting interaction | T180A;S182A
